According to article PMC8934654, “Structural characterization of the ANTAR antiterminator domain bound to RNA”:

T1: EutV (Enterococcus faecalis, UniProt A0A1Q1FU69 1-190)
T1 sequence: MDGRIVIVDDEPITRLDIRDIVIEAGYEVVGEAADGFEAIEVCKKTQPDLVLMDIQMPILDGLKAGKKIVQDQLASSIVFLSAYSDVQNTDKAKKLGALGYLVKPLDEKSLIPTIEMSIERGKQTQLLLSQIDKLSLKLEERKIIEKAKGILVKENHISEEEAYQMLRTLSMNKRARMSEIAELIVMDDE

B1: EutP RNA, 3' biotin (structured_RNA)
RNA: AGAAUCAGAAACACAAUGGCGUGUUUUAACAAAUCGGCAAAGGAGCCCAAG

Columns and labels:
EutV [1] = biological target: T1, EutV; test: SPR; details: SPR: 10 mM HEPES pH 7, 150 mM NaCl, 0.05% Tween-20, 2.5 mM MgCl2, 4 C; EMSA: 25 mM HEPES pH 7.5, 150 mM NaCl, 10 mM MgCl2, 4 C, 25 nM RNA
EutV [2] = biological target: T1, EutV; test: SPR; unphosphorylated, CM5 streptavidin chip, n=6; SPR: 10 mM HEPES pH 7, 150 mM NaCl, 0.05% Tween-20, 2.5 mM MgCl2, 4 C; EMSA: 25 mM HEPES pH 7.5, 150 mM NaCl, 10 mM MgCl2, 4 C, 25 nM RNA; details: protein: recombinant; tags: none (His-tag cleaved by TEV); chain copies: 2; label: 3' biotin-TEG; two hairpins with hexaloops P1 and P2
EutV [3] = biological target: T1, EutV; test: SPR; CAPture chip, 2.5 mM MgCl2, n=8; SPR: 10 mM HEPES pH 7, 150 mM NaCl, 0.05% Tween-20, 2.5 mM MgCl2, 4 C; EMSA: 25 mM HEPES pH 7.5, 150 mM NaCl, 10 mM MgCl2, 4 C, 25 nM RNA; details: protein: recombinant; tags: none (His-tag cleaved by TEV); chain copies: 2; label: 3' biotin-TEG; two hairpins with hexaloops P1 and P2
EutV M172A = EutV M172A (Enterococcus faecalis, UniProt A0A1Q1FU69 1-190, M172A); test: SPR; 2.5 mM MgCl2; SPR: 10 mM HEPES pH 7, 150 mM NaCl, 0.05% Tween-20, 2.5 mM MgCl2, 4 C; EMSA: 25 mM HEPES pH 7.5, 150 mM NaCl, 10 mM MgCl2, 4 C, 25 nM RNA; details: protein: recombinant; chain copies: 2; label: 3' biotin-TEG; two hairpins with hexaloops P1 and P2
EutV N173A/R175A/R177A = EutV N173A/R175A/R177A (Enterococcus faecalis, UniProt A0A1Q1FU69 1-190, N173A;R175A;R177A); test: as above; details: protein: recombinant; chain copies: 2; label: 3' biotin-TEG; two hairpins with hexaloops P1 and P2
EutV K143A/K147A = EutV K143A/K147A (Enterococcus faecalis, UniProt A0A1Q1FU69 1-190, K143A;K147A); test: as above; details: protein: recombinant; chain copies: 2; label: 3' biotin-TEG; two hairpins with hexaloops P1 and P2
EutV E160A = EutV E160A (Enterococcus faecalis, UniProt A0A1Q1FU69 1-190, E160A); test: as above; details: protein: recombinant; chain copies: 2; label: 3' biotin-TEG; two hairpins with hexaloops P1 and P2
EutV Y164A = EutV Y164A (Enterococcus faecalis, UniProt A0A1Q1FU69 1-190, Y164A); test: as above; details: protein: recombinant; chain copies: 2; label: 3' biotin-TEG; two hairpins with hexaloops P1 and P2
EutV R142A = EutV R142A (Enterococcus faecalis, UniProt A0A1Q1FU69 1-190, R142A); test: as above; details: protein: recombinant; chain copies: 2; label: 3' biotin-TEG; two hairpins with hexaloops P1 and P2

Molecule | Kd (EutV [1]) [µM] | Kd (EutV [2]) [µM] | Kd (EutV [3]) [µM] | binding result (EutV M172A) | binding result (EutV N173A/R175A/R177A) | binding signal (EutV K143A/K147A) | binding signal (EutV E160A) | binding signal (EutV Y164A) | binding signal (EutV R142A)
P2 hairpin | 3.1 | – | – | – | – | – | – | – | –
P1 hairpin | 6 | – | – | – | – | – | – | – | –
B1 | – | 2.2 ± 0.2 | 3.8 ± 2.1 | no binding | no binding | 5 fold reduction in affinity vs WT | 60 fold reduction in affinity vs WT | 55 fold reduction in affinity vs WT | 8 fold reduction in affinity vs WT
